Results published in US20250230251A1 (Bristol-Myers Squibb, published 2025).
Numbering of substitutions follows the chain as printed.

T1: cyIL-18Rβ-HisAvi (cynomolgus monkey)
T1 construct: Soluble analyte in SPR; also called cyno IL-18Rβ; cynomolgus monkey IL-18Rβ
T1 chain: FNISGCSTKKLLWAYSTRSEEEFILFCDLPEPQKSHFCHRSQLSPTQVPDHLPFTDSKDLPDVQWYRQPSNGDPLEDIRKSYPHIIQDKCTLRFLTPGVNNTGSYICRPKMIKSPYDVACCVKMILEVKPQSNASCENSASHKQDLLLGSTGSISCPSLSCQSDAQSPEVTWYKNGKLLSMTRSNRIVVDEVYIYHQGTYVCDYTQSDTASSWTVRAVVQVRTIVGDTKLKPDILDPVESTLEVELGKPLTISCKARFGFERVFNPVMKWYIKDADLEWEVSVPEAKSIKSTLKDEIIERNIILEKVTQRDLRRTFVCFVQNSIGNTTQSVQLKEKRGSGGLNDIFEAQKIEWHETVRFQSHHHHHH

T2: human IL-18Rβ on cells (human, UniProt O95256 20-599)
T2 sequence: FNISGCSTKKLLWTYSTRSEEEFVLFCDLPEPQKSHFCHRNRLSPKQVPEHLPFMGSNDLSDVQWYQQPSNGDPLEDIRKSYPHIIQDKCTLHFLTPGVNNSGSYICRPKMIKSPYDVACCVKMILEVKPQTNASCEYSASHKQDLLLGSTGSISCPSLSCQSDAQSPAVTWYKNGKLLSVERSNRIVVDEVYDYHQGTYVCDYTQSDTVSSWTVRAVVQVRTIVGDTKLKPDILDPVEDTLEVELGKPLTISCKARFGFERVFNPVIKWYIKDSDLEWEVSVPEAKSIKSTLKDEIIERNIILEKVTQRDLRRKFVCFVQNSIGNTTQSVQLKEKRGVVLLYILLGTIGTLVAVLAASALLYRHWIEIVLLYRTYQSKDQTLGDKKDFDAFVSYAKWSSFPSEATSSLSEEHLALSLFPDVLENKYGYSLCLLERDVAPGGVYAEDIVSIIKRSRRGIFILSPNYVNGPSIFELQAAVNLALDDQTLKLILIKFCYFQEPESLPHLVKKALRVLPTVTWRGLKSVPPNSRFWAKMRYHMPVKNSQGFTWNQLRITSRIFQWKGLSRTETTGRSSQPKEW

T3: IL-18:IL-18Rα complex (human, UniProt Q14116 37-193; Q13478 19-329, limits assumed)
T3 construct: Made by mixing 1.6 uM IL-18 with 100 nM IL-18Ra-Fc-His; also called complexed IL-18: IL-18Rα; not shown: Fc and His tag of the bought fusion protein, not described
T3 sequence (looked up) 1: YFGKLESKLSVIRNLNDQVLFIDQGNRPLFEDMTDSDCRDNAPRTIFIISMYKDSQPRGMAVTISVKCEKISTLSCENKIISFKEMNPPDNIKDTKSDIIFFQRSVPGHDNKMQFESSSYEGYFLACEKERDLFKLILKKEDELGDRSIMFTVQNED
T3 sequence (looked up) 2: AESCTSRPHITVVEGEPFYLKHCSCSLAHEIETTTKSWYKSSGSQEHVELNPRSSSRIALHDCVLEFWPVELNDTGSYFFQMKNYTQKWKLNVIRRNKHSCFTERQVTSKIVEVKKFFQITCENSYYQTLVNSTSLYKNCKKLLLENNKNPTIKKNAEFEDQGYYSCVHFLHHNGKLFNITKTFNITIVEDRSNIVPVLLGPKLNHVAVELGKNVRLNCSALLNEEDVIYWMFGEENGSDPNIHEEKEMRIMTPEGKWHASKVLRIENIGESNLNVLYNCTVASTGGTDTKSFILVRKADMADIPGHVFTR

B1: P20-V4 (antibody, human IgG1, kappa, name in Kabat numbering)
heavy: QVQLQESGPGLVKPSETLSLTCTVSGGSINNYYWSWIRQPPGKGLEWIGYIFYSGTTNYNPSLKSRVTISVDTSKNQFSLKLSSVTAADTAVYYCARDVGIAARNSYYYVMDVWGQGTTVTVSSASTKGPSVFPLAPSSKSTSGGTAALGCLVKDYFPEPVTVSWNSGALTSGVHTFPAVLQSSGLYSLSSVVTVPSSSLGTQTYICNVNHKPSNTKVDKRVEPKSCDKTHTCPPCPAPEAEGAPSVFLFPPKPKDTLMISRTPEVTCVVVDVSHEDPEVKFNWYVDGVEVHNAKTKPREEQYNSTYRVVSVLTVLHQDWLNGKEYKCKVSNKALPAPIEKTISKAKGQPREPQVYTLPPSREEMTKNQVSLTCLVKGFYPSDIAVEWESNGQPENNYKTTPPVLDSDGSFFLYSKLTVDKSRWQQGNVFSCSVMHEALHNHYTQKSLSLSPG
light: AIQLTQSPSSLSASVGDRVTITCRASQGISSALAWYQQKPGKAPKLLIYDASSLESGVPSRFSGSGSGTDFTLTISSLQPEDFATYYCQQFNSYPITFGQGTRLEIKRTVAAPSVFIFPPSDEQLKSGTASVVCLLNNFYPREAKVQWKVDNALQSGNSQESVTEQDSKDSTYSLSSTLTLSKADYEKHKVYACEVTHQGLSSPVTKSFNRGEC
notes: built from the chains of the parent P20 with the printed mutations
B2: P20-V5 (antibody, human IgG1, kappa, name in Kabat numbering)
heavy: B1 heavy with E6Q
light: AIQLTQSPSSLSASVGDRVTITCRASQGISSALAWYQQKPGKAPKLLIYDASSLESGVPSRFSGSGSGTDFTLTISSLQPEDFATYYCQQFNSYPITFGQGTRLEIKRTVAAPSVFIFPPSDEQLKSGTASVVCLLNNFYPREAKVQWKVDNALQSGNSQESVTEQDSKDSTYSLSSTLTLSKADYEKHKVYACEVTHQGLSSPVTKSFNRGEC
notes: built from the chains of the parent P20 with the printed mutation
B3: huIL-18Rβ-HisAvi (receptor)
chain: FNISGCSTKKLLWTYSTRSEEEFVLFCDLPEPQKSHFCHRNRLSPKQVPEHLPFMGSNDLSDVQWYQQPSNGDPLEDIRKSYPHIIQDKCTLHFLTPGVNNSGSYICRPKMIKSPYDVACCVKMILEVKPQTNASCEYSASHKQDLLLGSTGSISCPSLSCQSDAQSPAVTWYKNGKLLSVERSNRIVVDEVYDYHQGTYVCDYTQSDTVSSWTVRAVVQVRTIVGDTKLKPDILDPVEDTLEVELGKPLTISCKARFGFERVFNPVIKWYIKDSDLEWEVSVPEAKSIKSTLKDEIIERNIILEKVTQRDLRRKFVCFVQNSIGNTTQSVQLKEKR
modifications: biotinylated in the Octet blocking assay
notes: Soluble analyte in all SPR runs; captured on streptavidin sensors in the Octet assay; also called human IL-18Rβ; human IL-18Rβ-Avi-His

What was measured:
huIL-18Rβ-HisAvi [1] = target: B3; experiment: SPR T200, mAb on anti-hFc, 37C, pH 6
cyIL-18Rβ-HisAvi [2] = target: T1, cyIL-18Rβ-HisAvi; experiment: SPR T200, mAb on anti-hFc, 37C, pH 6
human IL-18Rβ on cells = target: T2, human IL-18Rβ on cells; experiment: cell-based or functional assay
huIL-18Rβ-HisAvi [3] = target: B3; experiment: SPR T200, pH 7.4 and pH 6
huIL-18Rβ-HisAvi [4] = target: B3; experiment: SPR T200, mAb on anti-hFc, 37C, pH 7.4
cyIL-18Rβ-HisAvi [5] = target: T1, cyIL-18Rβ-HisAvi; experiment: SPR T200, mAb on anti-hFc, 37C, pH 7.4
IL-18:IL-18Rα complex = target: T3, IL-18:IL-18Rα complex; experiment: Octet RED384 BLI, complex on sensor-captured biotin-hIL-18Rβ-Avi-His after the 50 nM antibody step

| Kd (huIL-18Rβ-HisAvi [1]) | koff (huIL-18Rβ-HisAvi [1]) | kon (huIL-18Rβ-HisAvi [1]) | Kd (cyIL-18Rβ-HisAvi [2]) | koff (cyIL-18Rβ-HisAvi [2]) | kon (cyIL-18Rβ-HisAvi [2]) | IC50, LPS+IL-12 dependent IFNg production, human whole blood (human IL-18Rβ on cells) | fold weaker binding than the parent P20 (huIL-18Rβ-HisAvi [3]) | Kd (huIL-18Rβ-HisAvi [4]) | koff (huIL-18Rβ-HisAvi [4]) | kon (huIL-18Rβ-HisAvi [4]) | Kd (cyIL-18Rβ-HisAvi [5]) | koff (cyIL-18Rβ-HisAvi [5]) | kon (cyIL-18Rβ-HisAvi [5]) | fold weaker off-rate and KD than the parent P20 (huIL-18Rβ-HisAvi [3]) | binding result (IL-18:IL-18Rα complex) | Binder |
| --- | --- | --- | --- | --- | --- | --- | --- | --- | --- | --- | --- | --- | --- | --- | --- | --- |
| 14 nM | 0.0037 s⁻¹ | 270000 M⁻¹ s⁻¹ | 42 nM | 0.002 s⁻¹ | 48000 M⁻¹ s⁻¹ | 37.6 nM | 100 fold | 42 nM | 0.0018 s⁻¹ | 44000 M⁻¹ s⁻¹ | 88 nM | 0.002 s⁻¹ | 23000 M⁻¹ s⁻¹ |  |  | B1 |
| 1.8 nM | 0.00059 s⁻¹ | 340000 M⁻¹ s⁻¹ | 5.5 nM | 0.00097 s⁻¹ | 180000 M⁻¹ s⁻¹ | 21.2 nM |  | 19 nM | 0.0011 s⁻¹ | 56000 M⁻¹ s⁻¹ | 40 nM | 0.0013 s⁻¹ | 34000 M⁻¹ s⁻¹ | 10 fold |  | B2 |
|  |  |  |  |  |  |  |  |  |  |  |  |  |  |  | binds | B3 |
